Measured values published in the supplement of paper PMC10724198.
± gives the standard deviation of the averaged measurements.

Columns and labels:
Saccharomyces cerevisiae [1] = experiment: protein stability index of tFT-peptide fusion (C-terminal peptide) (PSI (0-1 scale)); higher = more stable (slower turnover)
Method: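 MPS profiling in S. cerevisiae of the tFT-X12 degron library: putative degron peptides plus stable controls, 12 aa, fused to the C-terminus of a sfGFP-mCherry timer. Cells are FACS-sorted into 8 mCherry/sfGFP bins and deep-sequenced. PSI runs from 0 (unstable) to 1 (stable). Backgrounds are wild type, das1Δ and doa10Δ at 30 °C, and wild type, das1Δ, cdc34-1 and cdc53-1 at 37 °C; 2-3 technical replicates each.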

Saccharomyces cerevisiae [2] = experiment: as above; settings: genetic background: wild type; temperature: 30 C
[3] = genetic background: cdc34-1, temperature: 37 C
[4] = genetic background: cdc53-1, temperature: 37 C
[5] = genetic background: das1 deletion, temperature: 30 C
[6] = genetic background: das1 deletion, temperature: 37 C
[7] = genetic background: doa10 deletion, temperature: 30 C
[8] = genetic background: wild type, temperature: 30 C
[9] = genetic background: wild type, temperature: 37 C
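Also: PSI is a weighted mean of sequencing reads over stability bins, variants kept only with over 10 reads, mCherry proximal and sfGFP distal, peptide attached via GGGS linker.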

Sequence | protein stability index (Saccharomyces cerevisiae [1]; [3]) | protein stability index (Saccharomyces cerevisiae [1]; [4]) | protein stability index (Saccharomyces cerevisiae [1]; [5]) | protein stability index (Saccharomyces cerevisiae [1]; [6]) | protein stability index (Saccharomyces cerevisiae [1]; [7]) | protein stability index (Saccharomyces cerevisiae [1]; [8]) | protein stability index (Saccharomyces cerevisiae [1]; [9]) | protein stability index (Saccharomyces cerevisiae [2])
FSLSLFPYPFSL | 0.698 ± 0.022 | 0.764 ± 0.045 | 0.686 ± 0.02 | 0.765 ± 0.011 | 0.686 ± 0.01 | 0.672 ± 0.021 | 0.755 ± 0.018 | 0.755 ± 0.03
VCPCCPYVMIAG | 0.598 ± 0.061 | 0.641 ± 0.04 | 0.498 ± 0.027 | 0.647 ± 0.0012 | 0.318 ± 0.0013 | 0.336 ± 0.043 | 0.494 ± 0.0062 | 0.489 ± 0.018
PHLDLYRLSALI | 0.705 ± 0.01 | 0.751 ± 0.016 | 0.668 ± 0.032 | 0.79 ± 0.012 | 0.329 ± 0.031 | 0.366 ± 0.021 | 0.57 ± 0.021 | 0.47 ± 0.0056
PLRRPPPRPPWP | 0.65 ± 0.025 | 0.7054 ± 0.0032 | 0.674 ± 0.024 | 0.7032 ± 0.003 | 0.69 ± 0.03 | 0.644 ± 0.025 | 0.687 ± 0.011 | 0.494 ± 0.036
SVIVSSFFLWVF | 0.381 ± 0.051 | 0.454 ± 0.035 | 0.298 ± 0.03 | 0.482 ± 0.0072 | 0.2026 ± 0.00069 | 0.223 ± 0.029 | 0.426 ± 0.016 | 0.288 ± 0.019
MIVAIQLVDHPP | 0.459 ± 0.033 | 0.547 ± 0.0094 | 0.414 ± 0.013 | 0.522 ± 0.0075 | 0.409 ± 0.016 | 0.426 ± 0.028 | 0.509 ± 0.034 | 0.484 ± 0.044
GLPRRFLLLSVV | 0.328 ± 0.008 | 0.4613 ± 0.0015 | 0.354 ± 0.033 | 0.508 ± 0.015 | 0.11 ± 0.016 | 0.137 ± 0.016 | 0.114 ± 0.02 | 0.218 ± 0.0055
KCVVMFFLRSVS | 0.636 ± 0.024 | 0.6956 ± 0.0065 | 0.529 ± 0.037 | 0.676 ± 0.022 | 0.396 ± 0.012 | 0.412 ± 0.011 | 0.598 ± 0.011 | 0.5 ± 0.026
VFLRRFGVPWVF | 0.594 ± 0.016 | 0.664 ± 0.019 | 0.493 ± 0.029 | 0.661 ± 0.016 | 0.198 ± 0.0071 | 0.227 ± 0.02 | 0.429 ± 0.0074 | 0.365 ± 0.017
WYYTWKQLVMIV | 0.0845 ± 0.01 | 0.148 ± 0.0062 | 0.106 ± 0.023 | 0.186 ± 0.0072 | 0.0276 ± 0.0037 | 0.0263 ± 0.0054 | 0.0433 ± 0.021 | 0.0294 ± 0.022
GWRGVVLVFVLV | 0.302 ± 0.0049 | 0.46 ± 0.059 | 0.28 ± 0.027 | 0.47443 ± 1.3e-05 | 0.251 ± 0.012 | 0.269 ± 0.027 | 0.438 ± 0.015 | 0.36784 ± 0.00027
VSCLDLCFVISR | 0.647 ± 0.041 | 0.681 ± 0.022 | 0.503 ± 0.034 | 0.66874 ± 0.00016 | 0.528 ± 0.029 | 0.514 ± 0.025 | 0.626 ± 0.018 | 0.437 ± 0.013
VSLLSLGYVFVY | 0.286 ± 0.05 | 0.27 ± 0.03 | 0.212 ± 0.038 | 0.3467 ± 0.00073 | 0.184 ± 0.0098 | 0.216 ± 0.033 | 0.319 ± 0.0037 | 0.307 ± 0.019
STLPACNCLKLL | 0.663 ± 0.015 | 0.7607 ± 0.0055 | 0.622 ± 0.011 | 0.741 ± 0.013 | 0.332 ± 0.015 | 0.371 ± 0.03 | 0.565 ± 0.015 | 0.426 ± 0.069
YFFVCYFSLLVF | 0.0832 ± 0.019 | 0.139 ± 0.025 | 0.14 ± 0.032 | 0.231 ± 0.012 | 0.0967 ± 0.0036 | 0.119 ± 0.016 | 0.168 ± 0.03 | 0.177 ± 0.0081
IDSEVHLWKRSA | 0.618 ± 0.046 | 0.725 ± 0.012 | 0.642 ± 0.017 | 0.719 ± 0.037 | 0.16 ± 0.016 | 0.176 ± 0.027 | 0.405 ± 0.011 | 0.336 ± 0.058
IKRLKEVARHVS | 0.623 ± 0.057 | 0.706 ± 0.017 | 0.645 ± 0.03 | 0.694 ± 0.0085 | 0.265 ± 0.019 | 0.256 ± 0.031 | 0.4381 ± 0.0021 | 0.44 ± 0.054
TVRVWPRNLWFS | 0.519 ± 0.048 | 0.677 ± 0.017 | 0.639 ± 0.021 | 0.7273 ± 0.0018 | 0.111 ± 0.0029 | 0.111 ± 0.021 | 0.235 ± 0.031 | 0.176 ± 0.021
MVVILLVHWEYV | 0.15 ± 0.011 | 0.222 ± 0.032 | 0.172 ± 0.035 | 0.321 ± 0.017 | 0.17 ± 0.0031 | 0.171 ± 0.025 | 0.2768 ± 0.0012 | 0.262 ± 0.017
YILRLMMEGICL | 0.497 ± 0.012 | 0.545 ± 0.036 | 0.416 ± 0.033 | 0.48 ± 0.019 | 0.422 ± 0.038 | 0.409 ± 0.0083 | 0.464 ± 0.022 | 0.4198 ± 0.0029
PAPANRPTPRPV | 0.666 ± 0.041 | 0.7177 ± 0.006 | 0.661 ± 0.03 | 0.722 ± 0.011 | 0.652 ± 0.014 | 0.6256 ± 0.006 | 0.7517 ± 0.0059 | 0.7 ± 0.028
RLFIIYLLNIQG | 0.37 ± 0.052 | 0.5289 ± 0.0034 | 0.311 ± 0.022 | 0.544 ± 0.022 | 0.263 ± 0.0062 | 0.305 ± 0.047 | 0.515 ± 0.022 | 0.407 ± 0.019
YCSIQIQLVYGI | 0.341 ± 0.0037 | 0.4103 ± 0.0034 | 0.302 ± 0.025 | 0.441 ± 0.0063 | 0.301 ± 0.0082 | 0.312 ± 0.013 | 0.396 ± 0.011 | 0.424 ± 0.023
TLSRTPVSPSAP | 0.686 ± 0.051 | 0.738 ± 0.017 | 0.637 ± 0.018 | 0.706 ± 0.021 | 0.674 ± 0.032 | 0.6492 ± 0.0015 | 0.696 ± 0.022 | 0.7094 ± 0.0059
SLVPSIFLFRIF | 0.566 ± 0.042 | 0.613 ± 0.0084 | 0.544 ± 0.028 | 0.682 ± 0.0094 | 0.323 ± 0.0096 | 0.307 ± 0.022 | 0.467 ± 0.014 | 0.4516 ± 0.0032
PPRCLLPPPSRS | 0.652 ± 0.034 | 0.699 ± 0.014 | 0.694 ± 0.015 | 0.693 ± 0.0092 | 0.72 ± 0.05 | 0.692 ± 0.012 | 0.678 ± 0.009 | 0.79 ± 0.015
HLAQYSSSLHLM | 0.657 ± 0.098 | 0.719 ± 0.011 | 0.653 ± 0.0071 | 0.731 ± 0.027 | 0.375 ± 0.022 | 0.424 ± 0.014 | 0.6165 ± 0.0024 | 0.554 ± 0.085
FYFMGFFFGLGM | 0.589 ± 0.021 | 0.627 ± 0.052 | 0.519 ± 0.047 | 0.617 ± 0.057 | 0.481 ± 0.016 | 0.504 ± 0.016 | 0.597 ± 0.023 | 0.516 ± 0.046
KHTGTGNAPNCD | 0.686 ± 0.061 | 0.729 ± 0.024 | 0.649 ± 0.013 | 0.719 ± 0.011 | 0.647 ± 0.025 | 0.635 ± 0.011 | 0.712 ± 0.012 | 0.754 ± 0.056
QGPHISQYRTHR | 0.67 ± 0.022 | 0.7226 ± 0.0053 | 0.6413 ± 0.0052 | 0.745 ± 0.025 | 0.676 ± 0.0068 | 0.673 ± 0.014 | 0.728 ± 0.0094 | 0.706 ± 0.0037
